Source: the domain aggregation screens of Martell et al. (2025)

Experiment: soluble fraction after stress (log2 fold change); higher = more stays soluble; pooled small domains, quantitative proteomics
Details: stress: 75 degC
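Also: 20 min heating vs room temperature control held 20 min.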

Sequence: HMSDKTSLTDDDKALINSMLPDYDKYPSVAKLQAVEIAKSSSKMATLLMLDERYNETVSEALE
- soluble fraction (log2): 0.152

Sequence: HMSDLGEIEKIVDEVLAENITKVQEYKDGKKGLMGMFMGQIMKKSGGKADPKIANQLLTEKL
- soluble fraction (log2): 0.11

Sequence: HMSDNHYLLEIFLADLKSDEKFIRELAIFQLHHHIESDKVRAELKAAAETESDPYLKGMIESLLSSTS
- soluble fraction (log2): -1.53

Sequence: HMSDNYYSILGIETDATTDMIKRAYRRLSLELHPDRTKDNPILTEKYKKVNEAYGVLNDNDRKHIYDLQNI
- soluble fraction (log2): -0.109

Sequence: HMSDPELAIPRVVGLSGNDAQAALVKAGFSAVTVVTVKNSEVTSEQVTHVVPAEGAKAKASTPVTVVVSSS
- soluble fraction (log2): -0.205

Sequence: HMSDRQLKRQANILYTTRKLASKVGYDGLTMRGLAEASEVSPKTLYNLFSSKDELLAAALEDLVGIV
- soluble fraction (log2): 0.0601

Sequence: HMSDTFTITTESGRIDKIITAHETTHTRSQVQKWLQDGLVTVNGNPVKANFKVTAGDVVTVTIPEVK
- soluble fraction (log2): 0.0601

Sequence: HMSDTMTVTNVKYAIYLRSTPSEASDANIIMEIPVGSKVTYLDTPNNTFYKISYGGTVGYSKQIYLTF
- soluble fraction (log2): -3.69

Sequence: HMSDVLPEAILERRLVKKGNRAVPQVLIKWTKLPATSATWEDFYVLQQRFPTALAWGQAPSPGGQM
- soluble fraction (log2): -0.462

Sequence: HMSDVTPDVVRALRKRLKLTQVQFGEIFGMTSKKVSAWEHGKAEPTEEQKQKIQSLLKENNEQ
- soluble fraction (log2): -0.146

Sequence: HMSEATTVNYKYAVTISDLRIRKGPGTNYGSVGYTGKGVFTIVAEKGGWGKLKSGAGWISLNSKYGHKVS
- soluble fraction (log2): -2.03

Sequence: HMSEEAMVSNFRQQEILELARKDGKVTVDGLAELYDVTVQTIRRDLSDLADSGRLKRVHGGAVVPS
- soluble fraction (log2): 0.162

Sequence: HMSEFGENLKKLRTARDLTQQELGAKVGLSKAVVSKYENGLGYPTFDVLIRIAAYFGVTTDYLLGV
- soluble fraction (log2): -2.81

Sequence: HMSEFSDRFRLLKDESGATLKELSEQLDITVPNLSYYMKGREPSYDILIKIADYFGVTTDWLIGRTDER
- soluble fraction (log2): -1.18

Sequence: HMSEILQLINKIDKKLEKGYTFANISRNHYEKIYKEEILNLYKTSKLKGEAEDSIKEVLESLLGDLRKP
- soluble fraction (log2): -0.833

Sequence: HMSEISAEAGKRIRYFRKSRSMTLEELAAVIHKSKATLSKYETGEISIDLDTLYDLAVALQVRAEQLLPAS
- soluble fraction (log2): -4.35

Sequence: HMSEITMMQMEIPEGHNWENRLVKDVSMPTGSLAVMIKRHGETLIPGGDTRILAGDTIVLSVPAYESG
- soluble fraction (log2): -0.112

Sequence: HMSEIYVDDINRKILYLLSQGIKTKSLLEHIPLSMSGIEKRKKQLKMLFSVEDGKDETLLEMAKEKGF
- soluble fraction (log2): -2

Sequence: HMSEKAQSENEDLIKILALLIHAAKIDENYSEKEKKLIISFAEMSSNKKLDREQINSLVDKAEQYEK
- soluble fraction (log2): -0.532

Sequence: HMSEKLLTLNEISEKLRVSRHTVQAWVSPSSPNHRPEFSSLARHAGRKTVFLESDVDAWLAQRR
- soluble fraction (log2): -1.07

Sequence: HMSEKYPPIDWNNIKTGQSVLIKDINQVVSLTKLPDSKGFAEVQMGLIKTKIKAEKLAATDKKPNK
- soluble fraction (log2): -0.326

Sequence: HMSELDSYIGARLRMRRLMLGMSQEALGEKLSLTFQQIQKYEKGTNRVSASRLYELAQVLDVPVQFFFDGA
- soluble fraction (log2): -2.98

Sequence: HMSENDTILAKFASIINNKSLELVIFPDTAYLKGQVSTPEDKARAETVAQSLLGSKPLISLIEFE
- soluble fraction (log2): -0.386

Sequence: HMSENPLTSREIEIVQLLANGKTTKSIAEELHLSNGTIRNYVSIVLDKLNVSNRIEAIRKALDKGWL
- soluble fraction (log2): -1.81

Sequence: HMSEPQEISYSDFIEQVNRNEIRQVEFDGQHEYLTVIRKDTSRFKVIIPAPDPRLLDDLMEHDVEIVGKE
- soluble fraction (log2): -0.123

Sequence: HMSEQYEQIQLALKTLTQDEQDIVRLVVVEGASLRTAGKNLGVSAMTIQRRLKRALARLRDLLAS
- soluble fraction (log2): -0.839

Sequence: HMSESKYKMIKNWIKSKILDGTLVPNQKIYSESELMEIFDVSRHTVRLAIGELVSEGYLFKRQGTGTFVTQ
- soluble fraction (log2): -2.82

Sequence: HMSETTSRVLQLLGLLQARRVWTGQELADRLGVTGRSVRRDIERLRDLGYPVHASKGRDGGYQLGA
- soluble fraction (log2): -1.61

Sequence: HMSEYILATNDGEFLRITSYSKEEGGMLVWEKTSSIVSAEHKVIPYSQIINIKDRNGDVVWDKD
- soluble fraction (log2): -0.988

Sequence: HMSEYNPGIYRVTDPALNIRTGPGVEYPVVGVIKDQGSYTITEIRNKSWGRLLSGAGSTAIKHIVFT
- soluble fraction (log2): 0.214

Sequence: HMSFEITGDELILRFVKDKGGATTEQIRKHWEASNRGGKSDNNLTNLVKSGKLLRSKDPNGPGSLYTAS
- soluble fraction (log2): -0.0632

Sequence: HMSFESMGLTPRQADVLTLLLQGKSNKDIARRLVLSVETVKDHVQAVLRALGVSSRTQAVLAVGQMTQQ
- soluble fraction (log2): -0.584

Sequence: HMSFGYFQLRAKDPQKLKSVLEKIPQIQSIKEEKGDLIGYLNADMEAEELSQKLAAAKIFVTHMAKKK
- soluble fraction (log2): -0.583

Sequence: HMSFISRMVVAVEDIALSTRPNSTPSGDKYVSKGTVLLMEKRENDWVEVRQPSSPLSGWAPKTSLLSV
- soluble fraction (log2): -0.246

Sequence: HMSFNLSETKKLILEEIQKGVSSVTQIAATAGISKGMTYNHLRELKLMGYIADGDSGYVITDAGKIAS
- soluble fraction (log2): -0.448

Sequence: HMSFRYLHVKRQLMSLIGTMNAHERLPSRTDLSETFQVARTTIERAISELIGEGWLYARDGSGTYVAER
- soluble fraction (log2): -3.45

Sequence: HMSFSTHHEYYIYNLAVDMRKGYDGLSGLVVNELGRQPWDGSVYVFFNTMRDKVKLLVWDTDGYVIYSKR
- soluble fraction (log2): -0.279

Sequence: HMSFTDLILKSANAIDEMGGIWENGKQILGEKAIAIHEEIVDNGLNPDKDGFYKLANGQMIQYG
- soluble fraction (log2): 0.0518

Sequence: HMSFVEVTVSELKNYVNSHARIKLKSGKEFKGFILDANEEGVIIKVQLRGGTAESTISYNRIDRAAVF
- soluble fraction (log2): -4.01

Sequence: HMSGAERAAALLVALGPEVASEIMKFLDDESIQKLASEIAKIEVLSPQEKEDLIGQFLLELKKT
- soluble fraction (log2): -0.419

Sequence: HMSGAWEVGLLRQFTDWMGTQYNAYAGRNFDAITVAQVAEKNPELLTPFVESFFKERVEPALAAG
- soluble fraction (log2): -1.08

Sequence: HMSGEDYLERILMLKEKHGNVRAIDIANSMNFSKPSVSIALHKLSENGYVVIQNNGAIELTEKGLEVAT
- soluble fraction (log2): -0.455

Sequence: HMSGEIPFPPAFKPSADHIAIASEKGINIETELLNFRDYHQARGTKLIDWNSAFRVWLRNAR
- soluble fraction (log2): -0.531

Sequence: HMSGEITVPNLIGVEAIQAKTLLIQAGFLIKEFYDLDSTQPAGVVIRQAPEAGTTQTIGKSVTITINKQ
- soluble fraction (log2): -1.25

Sequence: HMSGENAVLTEGTMVTVRRGGETITATARKETVKQFLSRMDIIPGSREMVGIELMENSVMLTISD
- soluble fraction (log2): -0.889

Sequence: HMSGFPTDAQIVREIRNILPTLENPTPRMVRKALENTFEVDMGESKTKKYINNIIITEYEKWSSVQSIRE
- soluble fraction (log2): -0.603

Sequence: HMSGGNTSAFKGKLNYEYRGNDTIITGSTYPVKELIKKAGGRWDPGSSAWIIKGRHVSDNEIF
- soluble fraction (log2): 0.054

Sequence: HMSGQKDVPDLYGMTVKQAKKEVEAAGFKLKEGKEVYSNDYSKGQIAEQDPESGSKAKKGSSITVHVSKG
- soluble fraction (log2): 0.0162

Sequence: HMSGRIWTDNYGRTIEADVIKVNINRTVLLEFTDKKTKTVSFDTFISKDIQYLEYLLTRRNRGKL
- soluble fraction (log2): -3.98

Sequence: HMSGRVPTADDIAVGMKVYVPRLGGTGTVVTEPVRDKVVIQVGSLRLHAEVAELLLPDEHGRIQVPR
- soluble fraction (log2): -0.844

Sequence: HMSGTGSYVALLRDPQGNVGKVVVKGSKGEQVLSQPQQAARLDGATPSYEVTGRQIAEDFGRALAV
- soluble fraction (log2): 0.144

Sequence: HMSGTYIATVEAGSLDIYKSMTSNETIGKASRGDVFQILEDMGSGYARVSYNDVEGYMSIKTGDASIEEL
- soluble fraction (log2): 0.113

Sequence: HMSGVSESIEKKIQYLLLEKPLPLHDLIEAIEIGKEEDRLKVLRSLMDSDTVKIEDDLYHWNA
- soluble fraction (log2): -0.133

Sequence: HMSGYSTLFTRMSREDAQAVVSLLQDDGIEYRYNDDTGTVQVPSATVDQTRAKLVSAGYPRS
- soluble fraction (log2): -0.268

Sequence: HMSHANAALTPRARLRLAKLIVEEHWPVATAAKMFMVSPPTARKWATRFRAEGPAGMADRSSRP
- soluble fraction (log2): -1.63
